In this test the target is iRFP (Rhodopseudomonas palustris). Put plainly: SEC.

As usually defined, the stoichiometry N is a count of units in the complex or per binding partner. For iRFP, the stoichiometry N turned out to be 1.92 fold.

Values taken from publication PMC5122317.
